Key:
[1] = target: T1, recombinant mouse CTLA-4-Fc protein (R&D Systems) (mouse, UniProt P09793 36-162); experiment: ELISA, mouse CTLA-4-Fc coated at 0.3 pmol/well, IgG titrated
T1 construct: not shown: Fc part of the bought fusion protein, not described

[2] = target: T2, recombinant mouse CD28-Fc protein (R&D Systems) (mouse, UniProt P31041 20-149); experiment: ELISA, mouse CD28-Fc coated at 0.3 pmol/well
T2 construct: not shown: Fc part of the bought fusion protein, not described

[3] = target: T3, human CTLA-4 expressed on cells (293T cells stably transfected with human CTLA-4); in vitro-activated human … (human, UniProt P16410 36-223); experiment: flow cytometry on hCTLA-4-transfected 293T cells
T3 construct: whole, on cells; also called hCTLA-4

[4] = target: T4, recombinant human CD28-Fc protein (R&D Systems) (human, UniProt P10747 19-152); experiment: ELISA, CD28-Fc coated at 1 pmol/well
T4 construct: also called human CD28 protein; not shown: Fc part of the bought fusion protein, not described

[5] = target: T5, recombinant human CTLA-4-Fc protein (R&D Systems) (human, UniProt P16410 37-162); experiment: competitive flow cytometry: soluble rhCTLA-4-Fc blocks staining of activated human CD4+ T cells
T5 construct: also called rhCTLA-4-Fc; human CTLA-4 protein; not shown: Fc part of the bought fusion protein, not described

[6] = target: T6, recombinant mouse CTLA-4-Fc protein (Sino Biological Inc.) (mouse, UniProt P09793 36-162); experiment: ligand blocking ELISA on coated mouse CTLA-4-Fc
T6 construct: also called murine CTLA-4; not shown: Fc part of the bought fusion protein, not described

[7] = target: T5, recombinant human CTLA-4-Fc protein …; experiment: ELISA, CTLA-4-Fc coated, IgG titrated
[8] = target: T5, recombinant human CTLA-4-Fc protein …; experiment: ELISA, CTLA-4-Fc coated at 1 pmol/well, IgG titrated

| Binder | binding result [1] | binding result [2] | binding result [3] | binding result [4] | binding result [5] | binding result [6] | binding result [7] | binding result [8] |
| --- | --- | --- | --- | --- | --- | --- | --- | --- |
| 5-B07 (antibody, V domains shown, also called 5-B07 (human IgG format)) VH: EVQLLESGGGLVQPGGSLRLSCAASGFTFSSYSMNWVRQAPGKGLEWVSAISGSGGSTYYADSVKGRFTISRDNSKNTLYLQMNSLRAEDTAVYYCARDRVEMNQWLADWGQGTLVTVSS VL: not shown | binds | no binding (tested: titrated 66 nM to 0.3 pM) | binds | no binding (tested: titrated 66 nM to 0.3 pM) | binds | – | – | – |
| m5-B07 (antibody clone 5-B07 in mIgG2a format) (antibody, V domains shown, also called 5-B07 in mouse IgG2a format; m5-B07 mAb) VH: EVQLLESGGGLVQPGGSLRLSCAASGFTFSSYSMNWVRQAPGKGLEWVSAISGSGGSTYYADSVKGRFTISRDNSKNTLYLQMNSLRAEDTAVYYCARDRVEMNQWLADWGQGTLVTVSS VL: not shown | – | – | – | – | – | binds | – | – |
| 2-C06 (antibody, V domains shown, also called 2-006) VH: EVQLLESGGGLVQPGGSLRLSCAASGFTFSSYAMSWVRQAPGKGLEWVSGISGSGGYIHYADSVKGRFTISRDNSKNTLYLQMNSLRAEDTAVYYCATYSSGLHDAFDIWGQGTLVTVSS VL: QSVLTQPPSASGTPGQRVTISCTGSSSNIGAGYDVHWYQQLPGTAPKLLIYDNNKRPSGVPDRFSGSKSGTSASLAISGLRSEDEADYYCAAWDDSLNGWVFGGGTKLTVLG | – | – | binds | no binding (tested: titrated 66 nM to 0.3 pM) | – | – | binds | – |
| 4-E03 (antibody, human IgG1, lambda, V domains shown, also called 4-E03 mAb; 4-E03 monoclonal antibody) VH: EVQLLESGGGLVQPGGSLRLSCAASGFTFSDYYMSWVRQAPGKGLEWVSGISWSSRDKGYADSVKGRFTISRDNSKNTLYLQMNSLRAEDTAVYYCTTDLARYWGQGTLVTVSS VL: QSVLTQPPSASGTPGQRVTISCTGSSSNIGAGYDVHWYQQLPGTAPKLLIYGNDNRPSGVPDRFSGSKSGTSASLAISGLRSEDEADYYCAVWDDSLNGVVFGGGTKLTVLG | – | – | binds | no binding (tested: titrated 66 nM to 0.3 pM) | – | – | binds | – |
| 2-F09 (antibody, V domains shown) VH: EVQLLESGGGLVQPGGSLRLSCAASGFTFKAYSMSWIRQAPGKGLEWVSGISNTGGSTDFADSVKGRFTISRDNSKNTLYLQMNSLRAEDTAMYYCARLGYSGYDDRGMDVWGQGTLVTVSS VL: QSVLTQPPSASGTPGQRVTISCSGSSSNIGSNYVYWYQQLPGTAPKLLIYGNSNRPSGVPDRFSGSKSGTSASLAISGLRSEDEADYYCQSYDSSLSGPVVFGGGTKLTVLG | – | – | binds | – | – | – | – | binds |

From patent publication US20220041723A1 (BIOINVENT INTERNATIONAL, published 2022)
